Source: patent US20250377350A1

Molecular target: NY-ESO-1 157-165 peptide … presented on HLA-A*0201 (human)
Assay: cell-based or functional assay

mRuby2 (STAT5-mRuby2 reporter) expression in peptide-pulsed ACDC-HLA cells after co-culture with TnT-TCR1G4 cells: 29%
mRuby2+ cells of the monoclonal ACDC-HLA (A*0201) line (Clone 3, …-pulsed) after co-culture with TnT-TCR1G4 cells: 46.7%
Substance: TCR1G4 (specific for the NY-ESO-1 157-165 … antigen), displayed on TnT cells
